B1: KLHDC10 (parent)
chain: CPIIRIPNRFLRGHRPPPARSGHR
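Also: lentivirally expressed fusions sorted by FACS into six bins by GFP to DsRed ratio, PSI derived from sequencing read proportions per bin multiplied by bin number.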

Variants of: B1
Assay: protein stability index of a GFP-peptide fusion (GPS, HEK-293T) (PSI 1-6); higher = more stable
Details: c terminus: a fixed tail appended
Work on CPIIRIPNRFLRGHRPPPKRSGHR yielded a protein stability index of 1.61. With CPIIRIPNRFLRGHRPPPQRSGHR the protein stability index was 1.48. For CPIIRIPNRFLRGHRPPPGRSGHR, the protein stability index was 1.82. CPIIRIPNRFLRGHRPPPLRSGHR gave a protein stability index of 1.46. With CPIIRIPNRFLRGHRPPPRRSGHR the protein stability index was 2.02. CPIIRIPNRFLRGHRPPPVRSGHR gave a protein stability index of 1.48. Variant CPIIRIPNLFLRGHRPPPARSGHR has a protein stability index of 2.36. With CPIIRIPNMFLRGHRPPPARSGHR the protein stability index was 1.42. For CPIIRIPNKFLRGHRPPPARSGHR, the protein stability index was 1.37. In the case of CPIIRIPNNFLRGHRPPPARSGHR, the protein stability index is reported as 2.01. For CPIIRIPNHFLRGHRPPPARSGHR, the protein stability index was 2.32. In the case of CPIIRIPNSFLRGHRPPPARSGHR, the protein stability index is reported as 2.12. In the case of CPIIRIPNFFLRGHRPPPARSGHR, the protein stability index is reported as 2.94. CPIIRIPNQFLRGHRPPPARSGHR showed a protein stability index of 2.47. In the case of CPIIRIPNAFLRGHRPPPARSGHR, the protein stability index is reported as 1.61. CPIIRIPNVFLRGHRPPPARSGHR showed a protein stability index of 2.43. CPIIRIPNRFLRGHRPCPARSGHR showed a protein stability index of 1.21. In the case of CPIIRIPNRFLRGHRPHPARSGHR, the protein stability index is reported as 1.76. In the case of CPIIRIPNRFLRGHRPFPARSGHR, the protein stability index is reported as 1.81. CPIIRIPNRFLRGHRPWPARSGHR showed a protein stability index of 1.97. CPIIRIPNRFLRGHRPSPARSGHR showed a protein stability index of 2.27. With CPIIRIPNRFLRGHRPLPARSGHR the protein stability index was 2.28. Variant CPIIRIPNRFLRGHRPKPARSGHR has a protein stability index of 2.98. CAIIRIPNRFLRGHRPPPARSGHR gave a protein stability index of 3.75. In the case of CIIIRIPNRFLRGHRPPPARSGHR, the protein stability index is reported as 2.6. For CPVIRIPNRFLRGHRPPPARSGHR, the protein stability index was 1.71. With CPHIRIPNRFLRGHRPPPARSGHR the protein stability index was 2.16. For CPAIRIPNRFLRGHRPPPARSGHR, the protein stability index was 1.56. Variant CPPIRIPNRFLRGHRPPPARSGHR has a protein stability index of 4.2. In the case of CPTIRIPNRFLRGHRPPPARSGHR, the protein stability index is reported as 2.36. With CPSIRIPNRFLRGHRPPPARSGHR the protein stability index was 2.56. CPYIRIPNRFLRGHRPPPARSGHR showed a protein stability index of 1.6. CPKIRIPNRFLRGHRPPPARSGHR showed a protein stability index of 2.81. For CPIIWIPNRFLRGHRPPPARSGHR, the protein stability index was 2.73. For CPIIIIPNRFLRGHRPPPARSGHR, the protein stability index was 2.81. CPIIAIPNRFLRGHRPPPARSGHR showed a protein stability index of 3.57. With CPIIMIPNRFLRGHRPPPARSGHR the protein stability index was 1.6. For CPIIRIPNRFLRGHTPPPARSGHR, the protein stability index was 1.73. Variant CPIIRIPNRFLRGHKPPPARSGHR has a protein stability index of 2.19. CPIIRIPNRFLRGHIPPPARSGHR gave a protein stability index of 1.28. CPIIRIPNRFLRGHSPPPARSGHR gave a protein stability index of 1.69. Work on CPIIRIPNRFLRGHFPPPARSGHR yielded a protein stability index of 1.43. For CPIIRIPNRFLRGHDPPPARSGHR, the protein stability index was 2.11. In the case of CPIIRIPNRFLRGHGPPPARSGHR, the protein stability index is reported as 1.69. Variant CPIIRIPNRFLRGHAPPPARSGHR has a protein stability index of 1.3. In the case of CPIIRIPNRFLRGHCPPPARSGHR, the protein stability index is reported as 1.68. In the case of CPIIRIPNRFLRGHRPPPARSGHN, the protein stability index is reported as 1.84. For CPIIRIPNRFLRGHRPPPARSGHP, the protein stability index was 2.33. For CPIIRIPNRFLRGHRPPPARSGHW, the protein stability index was 2.99. Work on CPIIRIPNRFLRGHRPPPARSGHM yielded a protein stability index of 1.93. CPIIRIPNRFLRGHRPPPARSGHA showed a protein stability index of 2.37. With CPIIRIPNRFLRGHRPPPARSGHY the protein stability index was 1.7. Variant CPIIRILNRFLRGHRPPPARSGHR has a protein stability index of 2.25. In the case of CPIIRISNRFLRGHRPPPARSGHR, the protein stability index is reported as 3.13. For CPIIRIYNRFLRGHRPPPARSGHR, the protein stability index was 2.11. Variant CPIIRIHNRFLRGHRPPPARSGHR has a protein stability index of 3.62. With CPIIRIINRFLRGHRPPPARSGHR the protein stability index was 2.39. Work on CPIIRIWNRFLRGHRPPPARSGHR yielded a protein stability index of 3.51. Variant CPIIRINNRFLRGHRPPPARSGHR has a protein stability index of 2.6. CPIIRIANRFLRGHRPPPARSGHR showed a protein stability index of 2.38. With CPIIRIPNRFLRGCRPPPARSGHR the protein stability index was 1.48. For CPIIRIPNRFLRGSRPPPARSGHR, the protein stability index was 2.07. For CPIIRIPNRFLRGMRPPPARSGHR, the protein stability index was 1.87. CPIIRIPNRFLRGTRPPPARSGHR gave a protein stability index of 1.74. CPIIRIPNRFLRGKRPPPARSGHR gave a protein stability index of 2.57. Variant CPIIRIPNRFLRGGRPPPARSGHR has a protein stability index of 1.46. With CPIIRIPNRFLRGARPPPARSGHR the protein stability index was 1.96. CPIIRIPNRFLRGDRPPPARSGHR showed a protein stability index of 1.69. Work on CPIIRIPNRFLRGIRPPPARSGHR yielded a protein stability index of 1.87. Variant CPIIRIPNRFLRGERPPPARSGHR has a protein stability index of 2.22. In the case of CPIIRIPNRFLRGHRPPPARSMHR, the protein stability index is reported as 1.91. CPIIRIPNRFLRGHRPPPARSQHR showed a protein stability index of 1.33. Work on CPIIRIPNRFLRGHRPPPARSSHR yielded a protein stability index of 1.66. For CPIIRIPNRFLRGHRPPPARSVHR, the protein stability index was 2.76. CPIIRIPNRFLRGHRPPPARSDHR showed a protein stability index of 2.62. Work on CPIIRIPNRFLRGHRPPPARSLHR yielded a protein stability index of 2.02. Work on CPIIRIPNRFLRGHRPPPARSEHR yielded a protein stability index of 1.78. For CPIIRIPNRFLRGHRPPPARSIHR, the protein stability index was 1.82. CPIIRIPNRFLRGHRPPPARSCHR showed a protein stability index of 1.62. With CPIIRIPNRFLRGHRPPPARSYHR the protein stability index was 1.98. With CPIIRIPNRFLRGHRPPPARSKHR the protein stability index was 1.71. Variant CPIIRIPNRFLRGHRPPPARSNHR has a protein stability index of 1.95. In the case of CPIIRIPNRFLRGHRPPPARSHHR, the protein stability index is reported as 1.84. With CPIIRIPNRFLRGHRPPPACSGHR the protein stability index was 1.48. CPIIRIPNRFLRGHRPPPAVSGHR showed a protein stability index of 2.62. Variant CPIIRIPNRFLRGHRPPPAISGHR has a protein stability index of 1.38. With CPIIRIPNRFLRGHRPPPAFSGHR the protein stability index was 2.81. CPIIRIPNRFLRGHRPPPATSGHR gave a protein stability index of 2.51. For CPIIRIPNRFLRGHRPPPAPSGHR, the protein stability index was 2.16. In the case of CPIIRIPNRFLRGHRPPPAMSGHR, the protein stability index is reported as 2.13. In the case of CPIIRIPNRFLRGHRPPCARSGHR, the protein stability index is reported as 1.82. CPIIRIPNRFLRGHRPPFARSGHR gave a protein stability index of 1.62. For CPIIRIPNRFLRGHRPPMARSGHR, the protein stability index was 1.74. Work on CPIIRIPNRFLRGHRPPGARSGHR yielded a protein stability index of 2.95.
